Experimental data: article PMC12416549 (2024)
Residue numbers refer to the chain shown, from its start. Names may count otherwise.

B1: R8V (designed binder)
chain: MTLQELLVEEALRRAEAEAFRYALELLAEKFPEQKEYLLDLAEEIESQIRSLSGVDVEDVRKFLDKEWAWVKELLAEHPAELAEVEAARAARLAELRAEVEAKVAA
B2: K103T (designed binder)
chain: B1 chain with V8R, K103T
B3: R8A (designed binder)
chain: B1 chain with V8A
B4: E73K (designed binder)
chain: B1 chain with V8R, E73K
B5: P79R (designed binder)
chain: B1 chain with V8R, P79R
B6: E77R (designed binder)
chain: B1 chain with V8R, E77R
B7: F31I (designed binder)
chain: B1 chain with V8R, F31I
B8: V71A (designed binder)
chain: B1 chain with V8R, V71A
B9: W68E (designed binder)
chain: B1 chain with V8R, W68E
B10: E29N (designed binder)
chain: B1 chain with V8R, E29N
B11: A69S (designed binder)
chain: B1 chain with V8R, A69S
B12: D59Y (designed binder)
chain: B1 chain with V8R, D59Y
B13: P32T (designed binder)
chain: B1 chain with V8R, P32T
B14: V85L (designed binder)
chain: B1 chain with V8R, V85L
B15: E33G (designed binder)
chain: B1 chain with V8R, E33G
B16: L7Q (designed binder)
chain: B1 chain with L7Q, V8R
B17: V55K (designed binder)
chain: B1 chain with V8R, V55K
B18: L96F (designed binder)
chain: B1 chain with V8R, L96F
B19: L26H (designed binder)
chain: B1 chain with V8R, L26H
B20: E84W (designed binder)
chain: B1 chain with V8R, E84W
B21: V71H (designed binder)
chain: B1 chain with V8R, V71H
B22: E77A (designed binder)
chain: B1 chain with V8R, E77A
B23: L96C (designed binder)
chain: B1 chain with V8R, L96C
B24: A19D (designed binder)
chain: B1 chain with V8R, A19D
B25: A98W (designed binder)
chain: B1 chain with V8R, A98W
B26: K66H (designed binder)
chain: B1 chain with V8R, K66H
B27: S53M (designed binder)
chain: B1 chain with V8R, S53M
B28: E36I (designed binder)
chain: B1 chain with V8R, E36I
B29: A87E (designed binder)
chain: B1 chain with V8R, A87E
B30: Q4G (designed binder)
chain: B1 chain with Q4G, V8R
B31: E99I (designed binder)
chain: B1 chain with V8R, E99I
B32: E46V (designed binder)
chain: B1 chain with V8R, E46V
B33: A19I (designed binder)
chain: B1 chain with V8R, A19I
B34: T2K (designed binder)
chain: B1 chain with T2K, V8R
B35: A102L (designed binder)
chain: B1 chain with V8R, A102L
B36: E43D (designed binder)
chain: B1 chain with V8R, E43D
B37: V71D (designed binder)
chain: B1 chain with V8R, V71D
B38: A87F (designed binder)
chain: B1 chain with V8R, A87F
B39: D56A (designed binder)
chain: B1 chain with V8R, D56A
B40: E18D (designed binder)
chain: B1 chain with V8R, E18D
B41: E10L (designed binder)
chain: B1 chain with V8R, E10L
B42: L24G (designed binder)
chain: B1 chain with V8R, L24G
B43: L6V (designed binder)
chain: B1 chain with L6V, V8R
B44: A83P (designed binder)
chain: B1 chain with V8R, A83P
B45: L39H (designed binder)
chain: B1 chain with V8R, L39H
B46: A106F (designed binder)
chain: B1 chain with V8R, A106F
B47: V60T (designed binder)
chain: B1 chain with V8R, V60T
B48: Y37I (designed binder)
chain: B1 chain with V8R, Y37I
B49: R50G (designed binder)
chain: B1 chain with V8R, R50G
B50: L12V (designed binder)
chain: B1 chain with V8R, L12V
B51: A76N (designed binder)
chain: B1 chain with V8R, A76N
B52: R89I (designed binder)
chain: B1 chain with V8R, R89I
B53: E58K (designed binder)
chain: B1 chain with V8R, E58K
B54: R61W (designed binder)
chain: B1 chain with V8R, R61W
B55: Y37A (designed binder)
chain: B1 chain with V8R, Y37A
B56: E67F (designed binder)
chain: B1 chain with V8R, E67F
B57: V104I (designed binder)
chain: B1 chain with V8R, V104I
B58: E84V (designed binder)
chain: B1 chain with V8R, E84V
B59: A69W (designed binder)
chain: B1 chain with V8R, A69W

Target: T1, TNFR1 (Homo sapiens, UniProt P19438)
T1 chain: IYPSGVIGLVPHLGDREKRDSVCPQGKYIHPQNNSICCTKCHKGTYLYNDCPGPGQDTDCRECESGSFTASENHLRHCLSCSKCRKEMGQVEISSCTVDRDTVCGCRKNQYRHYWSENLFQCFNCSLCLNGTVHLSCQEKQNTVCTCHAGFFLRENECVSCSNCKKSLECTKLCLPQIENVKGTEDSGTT
Test: yeast display SC50

| Binder | apparent Kd (screen) |
| --- | --- |
| B1 | 539 pM |
| B2 | 956 pM |
| B3 | 869 pM |
| B4 | 539 pM |
| B5 | 869 pM |
| B6 | 490 pM |
| B7 | 956 pM |
| B8 | 490 pM |
| B9 | 2730 pM |
| B10 | 956 pM |
| B11 | 718 pM |
| B12 | 3000 pM |
| B13 | 539 pM |
| B14 | 2730 pM |
| B15 | 790 pM |
| B16 | 8560 pM |
| B17 | 16700 pM |
| B18 | 539 pM |
| B19 | 593 pM |
| B20 | 593 pM |

| Binder | apparent Kd (screen) |
| --- | --- |
| B21 | 539 pM |
| B22 | 539 pM |
| B23 | 490 pM |
| B24 | 1160 pM |
| B25 | 490 pM |
| B26 | 1050 pM |
| B27 | 1270 pM |
| B28 | 2480 pM |
| B29 | 446 pM |
| B30 | 490 pM |
| B31 | 490 pM |
| B32 | 490 pM |
| B33 | 956 pM |
| B34 | 718 pM |
| B35 | 790 pM |
| B36 | 790 pM |
| B37 | 29500 pM |
| B38 | 790 pM |
| B39 | 2050 pM |
| B40 | 718 pM |

| Binder | apparent Kd (screen) |
| --- | --- |
| B41 | 539 pM |
| B42 | 1400 pM |
| B43 | 2480 pM |
| B44 | 1270 pM |
| B45 | 2480 pM |
| B46 | 718 pM |
| B47 | 539 pM |
| B48 | 22200 pM |
| B49 | 1050 pM |
| B50 | 539 pM |
| B51 | 490 pM |
| B52 | 653 pM |
| B53 | 490 pM |
| B54 | 3630 pM |
| B55 | 24400 pM |
| B56 | 12500 pM |
| B57 | 718 pM |
| B58 | 490 pM |
| B59 | 539 pM |
